In the supplement of paper PMC7877785:
± gives the uncertainty stated by the source.

Assay: self-splicing fitness, log relative to wild type (ln ratio); higher = more splicing; Tetrahymena group I intron in knt gene, E. coli kanamycin selection, DiMSum; sequences stand for … in CUCUCU…GGAGGGAAAAGUUAUCAGGCAUGCACCUGGUAGCUAGUCUUUAAACCAAUAGAUUGCAUCGGUUUAAAAGGCAAGACCGUCAAAUUGCGGGAAAGGGGUCAACAGCCGUUCAGUACCAAGUCUCAGGGGAAACUUUGAGAUGGCCUUGCAAAGGGUAUGGUAAUAAGCUGACGGACAUGGUCCUAACCACGCAGCCAAGUCCUAAGUCAACAGAUCUUCUGUUGAUAUGGAUGCAGUUCACAGACUAAAUGUCGGUCGGGGAAGAUGUAUUCUUCUCAUAAGAUAUAGUCGGACCUCUCCUUAAUGGGAGCUAGCGGAUGAAGUGAUGCAACACUGGAGCCGCUGGGAACUAAUUUGUAUGCGAAAGUAUAUUGAUUAGUUUUGGAGUACUCGUGGUCG
Procedure, shortened: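 Six replicate transformations of E. coli BL21(DE3) with a pET-22b(+) library were grown overnight at 37°C or 30°C. The library randomised all eight P1ex-region intron nucleotides, the intron lying in the knt kanamycin-resistance gene, and plates were LB agar with or without 25 μg/mL kanamycin plus 100 μg/mL carbenicillin, 50 μM IPTG and 0.2% rhamnose. Pooled colonies were amplicon-sequenced on an Illumina HiSeq 2500, and fitness is the DiMSum error-weighted combination of wild-type-normalised replicate fold changes, kanamycin versus none.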

Sequence | self-splicing fitness (ln) (37 °C) | self-splicing fitness (ln) (30 °C)
UCAGAGCAAUAUUACGGAUC | -2.15 ± 0.33 | –
UCAGAGCAAUAUUACGGGCU | -2.46 ± 0.25 | -4.78 ± 0.36
UCAGAGCAAUAUUACGGGGC | -2.42 ± 0.41 | -3.3 ± 0.26
UCAGAGCAAUAUUACGUAAC | – | -2.5 ± 0.26
UCAGAGCAAUAUUACGUAAG | -1.82 ± 0.13 | -2.92 ± 0.14
UCAGAGCAAUAUUACGUAGA | 0.113 ± 0.12 | -0.896 ± 0.075
UCAGAGCAAUAUUACGUCAU | – | -3.84 ± 0.35
UCAGAGCAAUAUUACGUCGG | -0.479 ± 0.16 | -1.87 ± 0.2
UCAGAGCAAUAUUACGUCUC | – | -2.81 ± 0.34
UCAGAGCAAUAUUACGUGGG | -1.96 ± 0.14 | -3.2 ± 0.16
UCAGAGCAAUAUUACGUGGU | -1.78 ± 0.22 | -4.35 ± 0.39
UCAGAGCAAUAUUACGUUAG | -3.25 ± 0.35 | -3.86 ± 0.42
UCAGAGCAAUAUUACGUUCG | -1.07 ± 0.15 | -1.54 ± 0.11
UCAUAGCAAUAUUACGAAGA | -1.56 ± 0.38 | -2.06 ± 0.36
UCAUAGCAAUAUUACGACGU | -1.37 ± 0.15 | -1.76 ± 0.12
UCAUAGCAAUAUUACGAGAU | -3.29 ± 0.26 | -3.85 ± 0.21
UCAUAGCAAUAUUACGAGGU | -3.42 ± 0.32 | -2.98 ± 0.24
UCAUAGCAAUAUUACGAUCU | -1.88 ± 0.18 | -3.02 ± 0.19
UCAUAGCAAUAUUACGAUGU | -0.735 ± 0.1 | -2.55 ± 0.12
UCAUAGCAAUAUUACGCACA | -0.159 ± 0.11 | -1.21 ± 0.13
UCAUAGCAAUAUUACGCAUA | -1.34 ± 0.47 | –

Sequence | self-splicing fitness (ln) (37 °C) | self-splicing fitness (ln) (30 °C)
UCAUAGCAAUAUUACGCCCU | – | -2.75 ± 0.36
UCAUAGCAAUAUUACGCGGG | -1.99 ± 0.12 | -2.79 ± 0.14
UCAUAGCAAUAUUACGCUCC | -0.786 ± 0.27 | -2.92 ± 0.31
UCAUAGCAAUAUUACGCUUU | -2.41 ± 0.25 | -3.91 ± 0.24
UCAUAGCAAUAUUACGGAGG | -2.82 ± 0.2 | -3.54 ± 0.31
UCAUAGCAAUAUUACGGCAC | -2.15 ± 0.37 | -2.93 ± 0.5
UCAUAGCAAUAUUACGGCAU | -2.04 ± 0.23 | -3.91 ± 0.35
UCAUAGCAAUAUUACGGCUC | -1.78 ± 0.26 | -2.73 ± 0.24
UCAUAGCAAUAUUACGGGCC | -3.67 ± 0.46 | –
UCAUAGCAAUAUUACGGGGC | -3.14 ± 0.37 | –
UCAUAGCAAUAUUACGGUAC | -3.21 ± 0.33 | –
UCAUAGCAAUAUUACGGUGG | -2.07 ± 0.17 | -3.13 ± 0.15
UCAUAGCAAUAUUACGUCGA | -0.745 ± 0.13 | -0.314 ± 0.093
UCAUAGCAAUAUUACGUUUG | -1.84 ± 0.2 | -3.04 ± 0.18
UCCAAGCAAUAUUACGACGC | -1.25 ± 0.14 | -2.45 ± 0.18
UCCAAGCAAUAUUACGACUC | -2.62 ± 0.24 | -3.4 ± 0.29
UCCAAGCAAUAUUACGAGAA | -0.569 ± 0.17 | -0.789 ± 0.16
UCCAAGCAAUAUUACGAGAG | -1.85 ± 0.14 | -2.32 ± 0.12
UCCAAGCAAUAUUACGAGCC | -1.88 ± 0.29 | -2.51 ± 0.49
UCCAAGCAAUAUUACGAGUC | -2.97 ± 0.24 | -3.66 ± 0.19
UCCAAGCAAUAUUACGAUAC | -1.11 ± 0.3 | -3.99 ± 0.42
